Test results as given in the DeepSol protein solubility set.

Test: soluble on expression in E. coli; label from the status in PepcDB or PDB records

Sequence | soluble on expression in E. coli
MKFHVIDRENWNREQYFEHYLELKCTFSMTVNVDITLLIKKVHQKGIKFYPTFIYIISRIINKHKEFRTCFNDEGVLGYWEEMIPSYTIFHKDDKSFSSIWTDYSSDFRIFYKNYEEDMRCYASVHGLLTKENIPPNIFPISGIPWTSFTGFNLNINNDGDFLLPIITCGKYFNEENKIMLPVSLQVHHSVCDGYHVSRFIEDLQELSNSCNEWLK | not soluble
MPNDLPLLPPKNQHKHLDKTMISLPSDFRHLAHVGPMGSSEIENLRTSDNVIDTVNESSYYIRPSSSNSTLRSQRKEKDRVGLDDAFPSASKSEEEVEVVRGYENQPTSHQYINIAPPRPSKKNYKAPAPPTPPPQNSKPNLIFNAQDDEEETSEISEQPVVFRSISHTSNISTHIAPPPKIQTADRIVAPKPNSLVIERPGDLGGAFSFGLDDCIPIVKSTPPLNTLSPLHRPLAIPKNQEETPILSPASPPDDSNYMSTIRSTSVQGRKILDELDDWLDDLDDLDRDQLSTISTDESGYPTLALEKDRAFMKHLVEKYELGVAPETIRLRKKKGPAPKAPSLPPDLSSPTFQAPGFIPAFSARPVSMPPNRPPPSYEAPSFDAPEAPGTVLINGRALTKQNALDLRSSDESGVPPAIARFLYDKRIKSATMPMSIGRMTSSSGNTDVSTTSSRSNADTVSSILSTVGEDDDVEVLKRDREVEEEFVPPVPKPRSRKTVSTEPLKEEEEENVEEEIKGENVIGEEFQVVGDTKINDEQEDRVEATKDKINDAFIMLPPPSAAAMIPSDSESEDDDNFIITRF | not soluble
MGSDKIHHHHHHMIGFEELNLQPGTRLQLMRHRGRTPVQYLSTFIGMERNEYLLLRLPKAQGTFLTFYDGEKVTVRVFSGVMISSFDASVIQTIHHPLNCLCISFPHAIQVKKIRREMRIKVDIEGRLGLQDRTILPVKLTNISATGCQILVDRDIGKVDGQVVLNFNIAQLHDDETSAMTLEAKVRNVVPAGLSGGASFLAGLEFVALESNVQLLVRHYVYECLVDRRQNLV | not soluble
KFDESALVPEDQFLAQHPGPATIRVSKPNENDGQFMEITVQSLSENVGSLKEKIAGEIQIPANKQKLSGKAGFLKDNMSLAHYNVGAGEILTLSLRER | soluble
SGDFTWSSNLVFSWNKNEIKDLYGDGQNDLGNRWFLGHPIGVIYDYTMVGIWQEDEIARGDHLNWDPIAEAGDVKLADISGPDGVPDGKIDDNDRTIKGQTTPKWIGGLTNTFTYKDFTLSIFIQTTQGLKKNNSLIGMAGDEMGRRNTTTEIGYWTPENKSNEWRSLRKNSNKHGYGFPCDASYTRIKDITLSYTFPQRMIQKMGIGGLQLYVSGRNLFTFTDWVGWDPEARQVARGNSSWDSTRGETVYDSSNYPMTKSCVFGVNLTF | not soluble
MSLKIIDFRLRPPAMGFLNARIYTRPDIRNRFTRQLGFEPAPSAEEKSLELMFEEMAAAGIEQGVCVGRNSSVLGSVSNADVAAVAKAYPDKFHPVGSIEAATRKEAMAQMQEILDLGIRIVNLEPGVWATPMHVDDRRLYPLYAFCEDNGIPVIMMTGGNAGPDITYTNPEHIDRVLGDFPDLTVVSSHGNWPWVQEIIHVAFRRPNLYLSPDMYLYNLPGHADFIQAANSFLADRMLFGTAYPMCPLKEYTEWFLTLPIKPDAMEKILHGNAERLLAQAGREGHHHHHH | soluble
MAKPILYSYWRSSCAWRVRIALALKNIDYEYRPIDLFSEESKNNAEFVKHNPAKKVPTLVINGLSLTESLAIIEYLDEAYPDPPFLPKELDKRSYSRAIALHIVASIQPLQAINIHKMLNEKEPGYGDFWCNHFVNKGFLALEELLKKHSGKYCVGDQLTIADINLPSIIYNAKIYKVDMSKYPTITRINEILAEDFRFKLAHPDNQPDAPNKN | not soluble
MGSDKIHHHHHHMTITTQSLPVVRRHTIHFLEKAKNSQAVYLSTDIDASRIQEVKRRYEQASIKISYISFLLFAISRAIEVFPEVNSSVQGRWHLKRWQFSTIDAKVTLDKLAGQERMVVSSVIPETNKKSLLAIQDEINELKIASFETSDRFQSIRKLQRLPLWIGRIIYRKILQNPITWQQTQGSFTITSLGHVPIQSFFPITTNTVCFGVGSIRECAVVREGQVVVRPMLPLSMTFDHRAIDGALASEFLYRIKQNVEEWEVEAWEDDQKNQAMM | not soluble
MHHHHHHSSGRENLYFQGASEALKVVARCRPLSRKEEAAGHEQILTMDVKLGQVTLRNPRAAPGELPKTFTFDAVYDASSKQADLYDETVRPLIDSVLQGFNGTVFAYGQTGTGKTYTMQGTWVEPELRGVIPNAFEHIFTHISRSQNQQYLVRASYLEIYQEEIRDLLSKEPGKRLELKENPETGVYIKDLSSFVTKNVKEIEHVMNLGNQTRAVGSTHMNEVSSRSHAIFIITVECSERGSDGQDHIRVGKLNLVDLAGSERQNKAGPNTAGGAATPSSGGGGGGGGSGGGAGGERPKEASKINLSLSALGNVIAALAGNRSTHIPYRDSKLTRLLQDSLGGNAKTIMVATLGPASHSYDESLSTLRFANRAKNIKNKPRVNEDPKDTLLREF | soluble
MLKIADKTFQSRLFTGTGKFSNRHVMAEALAASGSELVTMALKRIDLAQRDDDILAPLLSMQMNLLPNTSGAKNAADAVYAAELAREALATNWLKLEIHPDPKYLMPDPIETLLAAEQLVKQGFIVLPYCHADPVLCKRLEEVGCAAVMPLGSPIGSNQGLASKTFLEIIIDQAKVPVIVDAGIGSPSDAAQAMELGADAVLVNTAIAAAHDPIAMAKAFKLAVEAGRMAYESGLPSRVKMATASSPLTGFLDFVS | not soluble
MGSLLSTPEGSNPIGKAIGFLSQRKRPAVELQDDFEPEVKVQRTCEVQDEEAEEENIEFEHEIDEEEIEEQDEIVHEQSENDQNLKDSDEKKNEIVALEKSTEKDEELPIPEKEAQVDQEDTLENLFEKETESNNTNEQQENVETNDTTSNFDLNEAEERVDVFSNGLLTSIQSTQPEIIA | soluble
MGSDKIHHHHHHMNKDLKAIKWFITTQILKDPFNPAYATFKVTSRCNLRCTFCSPSYYSGELGEGSTERVKKIIDNLRDSSIVVLSFEGGEPTYRPDILDLLEYAHDGSFYIMLTTNGYRLKDEDFLTKLADKIDFLHYSIDEYHWNVKELENLCRFRKYGLKVNVQTVVTRYNLYKLEEKVRKVAECGYKILAMPAVDYPNSKVKLAPDPYEFYKVLYDLKRKYGSTLNNSWGFINAIIGKVPKRVVSYAITIYPNGDLPYPDDINGEIVGNVAEEPLNKILQSSKVKELQQKMLENQAKFEYLHLQTASFNNIRDLASYVSEMLRWRFTGRA | not soluble
MKKKILKVATALTIMGGVAFSAEGATAKAELAAKPQQASQAIFKDVPAGHWSYEAIQTLAEQEIMLGYGNGVFGFGHNVTREQVAALIYRALDLDEEFGEDEELESPYNDIVDDNSTMFPFEVLAVTELGIFTGDEKGNFRPKDTLTRAEMAQVLTRAFGLQVQGLAGFKDVPKGHWAENAINAVGSNGISVGDGNGNFAPNMKVTREQYAQFLFRAL | not soluble
LKDSYVEYTLLYDTIASRISIDEVEAKDGKLRLMKNVWWEYDKLPHMLIAGGTGGGKTYFILTLIEALLHTDSKLYILDPKNADLADLGSVMANVYYRKEDLLSCIETFYEEMMKRSEEMKQMKNYKTGKNYAYLGLPAHFLIFDEYVAFMEMLGTKENTAVMNKLKQIVMLGRQAGFFLILACQRPDA | not soluble
MFILSKIADLVRIPPDQFHRDTISAITHQLNNKFANKIIPNVGLCITIYDLLTVEEGQLKPGDGSSYINVTFRAVVFKPFLGEIVTGWISKCTAEGIKVSLLGIFDDIFIPQNMLFEGCYYTPEESAWIWPMDEETKLYFDVNEKIRFRIEREVFVDVKPKSPKERELEERAQLENEIEGKNEETPQNEKPPAYALLGSCQTDGMGLVSWWEHHHHHH | soluble
MIPQRIKELEAYKTEVTPASVRLSSNEFPYDFPEEIKQRALEELKKVPLNKYPDPEAKELKAVLADFFGVKEENLVLGNGSDELIYYLSIAIGELYIPVYIPVPTFPMYEISAKVLGRPLVKVQLDENFDIDLERSIELIEKEKPVLGYFAYPNNPTGNLFSRGKIEEIRNRGVFCVIDEAYYHYSGETFLEDALKREDTVVLRTLSKIGMASLRVGILIGKGEIVSEINKVRLPFNVTYPSQVMAKVLLTEGREFLMEKIQEVVKERERMYDEMKKIEGVEVFPSKANFLLFRTPYPAHEVYQELLKRDVLVRNVSYMEGLQKCLRVSVGKPEENNKFLEALEESIKSLSSSL | soluble
SRKVFVGGLPPDIDEDEITASFRRFGPLVVDWPHKAESKSYFPPKGYAFLLFQEESSVQALIDACLEEDGKLYLCVSSPTIKDKPVQIRPWNLSDSDFVMD | soluble
MGSDKIHHHHHHMILVLFYRTTKSHQTHSRHMSVNTTELSIEIIDIVSDRDGARLRDIVEEVDVAKSTAHKHLTTLRDSGFLVKRGEIYQVGLRFLNYGEQARSRWPGYPHIEEAIAALTERTEEECDFVAPDRGRVITIAESYHKWAKFEGTTTDGPSKEYRARTGSYYHMHATASGLAVLSTYSKSRVEDVIERWGLPARTDHTITSREELHAELEQIRERGYAVDDQGYTDGMRSIGKAVHGPEGDVIGALSVSGPTYRVDGMVLEQEVPNALRDVVDELEERLRTTN | not soluble
MGSSHHHHHHSSGEDRYKEKLLQKAKAEGVESIEELKKRLADQIEEKKKELNKIDPLRELEQHLNAGSRIHTNKEHKTTKMSNKSNEKSGNVLPKDKPYKTLDDYLKLDKIKDLSKQEVEFLWRAKWSNRDDSLVAVVPYVKTFQGMYKYAVKNPLFVLPLPRENAADGNKADKDSVPVELQYVQWQFAGPNTVHCLITSLAEYKLHQDFAKPHTTIQFHLDLANDKDMVLMNGQVESDSNVSLQDAQLLLLNVQRFYGAMGSETSIAKERIQLLEDFNKGSQNFDINKLIQLAQSMEN | soluble
RVAGSAIDYWRAGILGKRRVRVENHIVLLGWNGSRTMHLIRMLQHEEEGKRPIVLCSRSDIENPLPGEIHFIKVTSYTDAQEMKNANITDASCIIVDNLSDDITLSAALYCASVNPDAHLLAYFKDDALGRLLSQHCPKAECIPAVGAEMLAKAAVDPGSSALHQELLASTRGMTQYSVIYPENQPITTIESIFGFIKKRHHATLIAFDIGNGIQLNPDLDAEVPPGTKLFYIADERIDDFAWKEMNKEQ | not soluble
MTATWEKKEGNEGLLTVTVPAEKVNKALDQAFKKVVKQINVPGFRKGKVPRPIFEQRFGVEALYQDAIDILLPDAYGEAIDETDIKPVAQPEVSVTQIEKGKDFIFEATVTVEPEVKLGDYKGLEIEKQETELSDDELQEAIDHSLGHLAEMVVKEDGVVENGDTVNIDFSGSVDGEEFEGGQAEGYDLEIGSGSFIPGFEEQLEGMKVDEEKDVVVTFPEEYHAEELAGKEATFKTKVNEIKFKEVPELTDEIANELDAEANTVDEYKENLRKRLAEQKATDAENVEKEEAITKATDNTTIDIPEAMVNTELDRMVSEFAQRIQQQGLDLQTYFQISGQDETQLREQMKDDAEQRVKTNLTLTAIAEAEKIEATDEDIDKELEKMSKQFNISVEDIKNTLGNTDIIKNDVRIQKVIDLLRDNAKFVEGTKED | not soluble
MKAETTTGVEELLNELVGRAAGEVGLILFSLGIEGEFTDDQLSLELGIEINEIRKALFALYEIGLADYVRRRDDETGWMEYYWRINYDKALDVLKRELEKTAKKLREKIEAETSTIYYICPNMCVKVSYNDAMELNFTCPRCGAMLDYLDCSKAIEKIEEEVRRIEEILESLDKNSG | not soluble
